We go through 2 molecules from article PMC3808539, “CtpB Assembles a Gated Protease Tunnel Regulating Cell-Cell Signaling during Spore Formation in Bacillus subtilis” (Cell, 2013).

Substitutions are numbered along the chain they refer to. Names may count otherwise.

On the set-up of the data set: species or system Bacillus subtilis. The text has this:
Figure S1 CtpB Autocleavage and Dimerization, Related to Figures 1 and 2 (A) SDS-PAGE analysis monitoring auto-degradation of CtpB. […] (C) Comparison of the gelfiltration profiles of wild-type CtpB and a Δ86 construct lacking the N-terminal dimerization domain. An SDS-PAGE analysis is shown below the chromatograms. (D) Cleavage assays comparing the activity of wild-type and Δ86 CtpB against the 4B predigested 4FAproc substrate.

B1: WT: wild-type CtpB, PDZ-protease of B. subtilis (protein, UniProt O35002 24-480, looked up)
Carboxy-terminal processing …: GINLLEMDKPQTAAVPATAQADSERDKAMDKIEKAYELISNEYVEKVDREKLLEGAIQGMLSTLNDPYSVYMDKQTAKQFSDSLDSSFEGIGAEVGMEDGKIIIVSPFKKSPAEKAGLKPNDEIISINGESMAGKDLNHAVLKIRGKKGSSVSMKIQRPGTKKQLSFRIKRAEIPLETVFASEKKVQGHSVGYIAISTFSEHTAEDFAKALRELEKKEIEGLVIDVRGNPGGYLQSVEEILKHFVTKDQPYIQIAERNGDKKRYFSTLTHKKAYPVNVITDKGSASASEILAGALKEAGHYDVVGDTSFGKGTVQQAVPMGDGSNIKLTLYKWLTPNGNWIHKKGIEPTIAIKQPDYFSAGPLQLKEPLKVDMNNEDVKHAQVLLKGLSFDPGREDGYFSKDMKKAVMAFQDQNKLNKTGVIDTRTAETLNQQIEKKKSDEKNDLQLQTALKSLFVN
B1: the auto-degradation entry is “auto-degraded at position 36 and 42”.

B2: CtpBS309A: inactive CtpB S309A mutant (protein, UniProt O35002 24-480, looked up, variant S309A)
Carboxy-terminal processing …: B1 Carboxy-terminal processing … with S286A
Consider B2, for which the auto-degradation entry is reported as “no further degradation”.
